Assay results taken from patent US20150197559A1 (University of California, published 2015).
Substitutions are numbered along the chain they refer to.

Key:
BoNT/A1 (Hall hyper) [1] = target: T1, BoNT/A1 (Hall hyper) (Clostridium botulinum, UniProt P0DPI0 2-1296); experiment: flow cytometry, yeast-displayed scFv, soluble BoNT/A1
BoNT/A1 (Hall hyper) [2] = target: T1, BoNT/A1 (Hall hyper); experiment: flow cytometry, yeast-displayed scFv, soluble toxin
BoNT/A1 (Hall hyper) [3] = target: T1, BoNT/A1 (Hall hyper); experiment: as above; remark: listed apart in the source
BoNT/A1 (Hall hyper) [4] = target: T1, BoNT/A1 (Hall hyper); experiment: KinExA flow fluorimetry, IgG in solution
BoNT/A1 (Hall hyper) [5] = target: T1, BoNT/A1 (Hall hyper)
BoNT/B4 = BoNT/B4 (Clostridium botulinum); experiment: flow cytometry, yeast-displayed scFv, soluble toxin
BoNT/B2 = BoNT/B2 (Clostridium botulinum); experiment: as above
BoNT/B3 = BoNT/B3 (Clostridium botulinum); experiment: as above
BoNT/B1 [6] = target: T2, BoNT/B1 (Clostridium botulinum, UniProt P10844 2-1291); experiment: as above
T2 sequence: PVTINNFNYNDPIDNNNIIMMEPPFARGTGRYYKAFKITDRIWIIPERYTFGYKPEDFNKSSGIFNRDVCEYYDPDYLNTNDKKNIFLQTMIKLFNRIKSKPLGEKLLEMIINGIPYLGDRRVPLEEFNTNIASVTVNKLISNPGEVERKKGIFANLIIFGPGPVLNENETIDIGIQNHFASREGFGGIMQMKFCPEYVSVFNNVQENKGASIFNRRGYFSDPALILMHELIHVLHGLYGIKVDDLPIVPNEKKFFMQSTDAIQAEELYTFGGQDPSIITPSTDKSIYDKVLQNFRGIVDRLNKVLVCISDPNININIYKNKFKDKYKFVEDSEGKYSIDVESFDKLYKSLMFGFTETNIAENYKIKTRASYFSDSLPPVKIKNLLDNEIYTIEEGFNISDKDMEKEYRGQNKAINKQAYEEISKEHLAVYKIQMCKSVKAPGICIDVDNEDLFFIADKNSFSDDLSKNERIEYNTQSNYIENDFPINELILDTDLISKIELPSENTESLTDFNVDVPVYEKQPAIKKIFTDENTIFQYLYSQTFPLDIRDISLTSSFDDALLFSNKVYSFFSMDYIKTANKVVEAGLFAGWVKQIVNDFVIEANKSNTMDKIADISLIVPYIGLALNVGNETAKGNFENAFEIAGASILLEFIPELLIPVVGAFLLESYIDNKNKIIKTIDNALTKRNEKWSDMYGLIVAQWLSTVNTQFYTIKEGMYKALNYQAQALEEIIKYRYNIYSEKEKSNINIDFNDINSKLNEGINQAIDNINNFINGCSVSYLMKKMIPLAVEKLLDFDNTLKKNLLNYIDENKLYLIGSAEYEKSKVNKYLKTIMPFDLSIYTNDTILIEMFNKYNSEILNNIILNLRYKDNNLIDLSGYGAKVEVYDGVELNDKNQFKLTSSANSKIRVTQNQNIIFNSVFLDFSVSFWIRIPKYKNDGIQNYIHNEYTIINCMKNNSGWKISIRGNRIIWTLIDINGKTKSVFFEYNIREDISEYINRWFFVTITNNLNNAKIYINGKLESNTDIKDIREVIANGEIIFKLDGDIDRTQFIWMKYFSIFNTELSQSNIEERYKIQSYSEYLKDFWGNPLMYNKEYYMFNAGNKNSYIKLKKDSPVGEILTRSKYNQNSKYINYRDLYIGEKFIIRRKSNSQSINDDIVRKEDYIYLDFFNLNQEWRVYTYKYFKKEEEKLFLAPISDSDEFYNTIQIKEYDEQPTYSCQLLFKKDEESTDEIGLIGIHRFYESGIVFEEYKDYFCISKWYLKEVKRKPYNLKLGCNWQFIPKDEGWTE

BoNT/B1 [7] = target: T2, BoNT/B1; experiment: flow cytometry, yeast-displayed Fab, soluble toxin
BoNT/B1 [8] = target: T2, BoNT/B1; experiment: yeast-displayed Fab against parental B11 scFv, flow cytometry
BoNT/B1 [9] = target: T2, BoNT/B1; experiment: flow cytometry, yeast-displayed Fab against yeast-displayed scFv
BoNT/B1 [10] = target: T2, BoNT/B1; experiment: yeast-displayed scFv, flow cytometry; reference parental scFv 1B18
BoNT/B1 [11] = target: T2, BoNT/B1; experiment: flow cytometry, yeast-displayed affinity matured scFv
BoNT/A1 (Hall hyper) [12] = target: T1, BoNT/A1 (Hall hyper); experiment: flow cytometry, yeast-displayed Fab, soluble toxin
BoNT/A1 (Hall hyper) [13] = target: T1, BoNT/A1 (Hall hyper); experiment: flow cytometry, yeast-displayed Fab against yeast-displayed scFv
BoNT/B1 [14] = target: T2, BoNT/B1; experiment: KinExA flow fluorimetry, IgG in solution

B1: ING2 scFv (scFv, V domains shown)
VH: QVQLVQSGAEVKKPGSSVKVSCKASGDTFNRNAIAWVRQAPGQGLEWMGRIIPNLRTTHYAQKFQGRVAITADKHTNTVFMELSSLRSEDTAVYYCARDPYYYSYMDVWGKGTTVTVSS
VL: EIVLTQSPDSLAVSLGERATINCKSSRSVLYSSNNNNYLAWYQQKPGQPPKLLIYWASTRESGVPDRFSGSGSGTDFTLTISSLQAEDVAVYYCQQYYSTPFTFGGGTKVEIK
Kd (BoNT/A1 (Hall hyper) [1]): 0.25 nM
Kd (BoNT/A1 (Hall hyper) [2]): 0.238 nM
Kd (BoNT/A1 (Hall hyper) [3]): 0.24 nM

B2: ING2 IgG (antibody, V domains shown)
VH: B1 VH
VL: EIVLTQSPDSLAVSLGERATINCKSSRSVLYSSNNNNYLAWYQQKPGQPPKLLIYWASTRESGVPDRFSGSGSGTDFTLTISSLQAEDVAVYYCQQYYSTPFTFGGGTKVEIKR
Kd (BoNT/A1 (Hall hyper) [4]): 0.00957 nM
fold increase in affinity, IgG against parental scFv (BoNT/A1 (Hall hyper) [5]): 1.5 to 25 fold

B3: 2B27 scFv (scFv, V domains shown)
VH: EVQLQESGPGLVKPSETLSVTCAVSGGSISSSNYSWAWIRQPPGKGLEWIGTMYYSGSTHYHPSLKSRVTISVDTSKSQLSLKLSSVTAADTAVYYCARRRLLGPSPYYFDYWGQGTLVTVSS
VL: QSVVTQPPSVSGAPGQRVTISCSGSSSNIGAGYDVHWYQQLPGTAPKLLIYGNNNRPSGVPDRFSGSKSGTSASLAITGLQAEDEADYYCQSYDSSLSAYVFGTGTKLTVLG
Kd (BoNT/B4): 0.77 nM
Kd (BoNT/B2): 0.56 nM
Kd (BoNT/B3): 2.32 nM
Kd (BoNT/B1 [6]): 1.9 nM

B4: B11E8 Fab (Fab, V domains shown)
VH: EVQLVQSGGGVVQPGRSLRLSCAASGFIFRTYGMHWVRQAPGKGLEWVAFVSSDGNNKFYSDSVKGRFTISRDNAKNTLYLQMNSLETEDTAMYYCAKDRYPIDCSGGSCFSYGMDVWGQGTTVTVSS
VL: EIVLTQSPATLSVSPGERATLSCRASQSVSKFLAWYQQKRGQAPRLLIYGASTRATGIPARFSGSGSGTEFALTISSLQSEDFADYYCQQYDNWPITFGQGTRLEIKR
Kd (BoNT/B1 [7]): 0.081 nM
KD wild type/KD matured (BoNT/B1 [8]): 32 fold

B5: B11 Fab (Fab, V domains shown)
VH: B4 VH with E1Q, V5L, G8A, S71P, M93V
VL: DIVMTQSPSTLSASVGDRVTVTCRASQSINSWLAWYQQKPGKAPKLLIYEASSLESGVPSRFSGSGSGTEFTLTISSLQPDDFATYYCQQYDSYWLTFGGGTKVEIKR
fold lower affinity than the scFv (BoNT/B1 [9]): 2.5 fold

B6: 2B18.1 scFv (scFv)
scFv: QVQLVQSGGGLVQPGGSRRLSCAASGFYFNAYWMTWVRQAPGKGLEWVANINLDGTEIYYLDSVKGRFTVSRDNVKNSVFLQMSSLRVEDTAVYFCARLEWGGRNGWVSPWGQGTLVTVSSGGGGSGGGGSGGGGSDIVMTQSPSSLSASVGDRVSISCRASQSISSYLNWYQQKPGKAPKLLIYKTSSLESGVPSRFSGRGSGTDFTLTISSLQPEDFATYYCQQSYSTPLTFGGGTKVEIKR
Fold increase in affinity scFv (KD wild type/KD matured) (BoNT/B1 [10]): 11.4 fold
Kd (BoNT/B1 [11]): 0.638 nM

B7: ING1 Fab (Fab, V domains shown)
VH: QVQLQQSGGGLVQPGGSLRLSCAASGFTFSNYAMTWVRQAPGKGLEWVSSISVGGSDTYYADSVKGRFTVSRDNSKNTLLLQMNSLRAEDTAVYYCAKVRTKYCSSLSCFAGFDSWGQGTRVTVSS
VL: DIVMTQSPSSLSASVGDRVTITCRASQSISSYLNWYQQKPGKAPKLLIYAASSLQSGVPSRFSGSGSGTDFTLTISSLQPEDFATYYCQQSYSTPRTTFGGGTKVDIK
Kd (BoNT/A1 (Hall hyper) [12]): 20.6 nM
fold lower affinity than the scFv (BoNT/A1 (Hall hyper) [13]): 3.9 fold

B8: 2B18.1 IgG (antibody, V domains shown)
VH: QVQLVQSGGGLVQPGGSRRLSCAASGFYFNAYWMTWVRQAPGKGLEWVANINLDGTEIYYLDSVKGRFTVSRDNVKNSVFLQMSSLRVEDTAVYFCARLEWGGRNGWVSPWGQGTLVTVSS
VL: DIVMTQSPSSLSASVGDRVSISCRASQSISSYLNWYQQKPGKAPKLLIYKTSSLESGVPSRFSGRGSGTDFTLTISSLQPEDFATYYCQQSYSTPLTFGGGTKVEIKR
Kd (BoNT/B1 [14]): 0.0724 nM

B9: 2B29 scFv (scFv, V domains shown)
VH: QVQLQESGPGLVKPSETLSLTCSVSGGSINSGTYYWTWIRQHPGKGLEWIGYIYYSGTTYYNPSLKSRVSMSVDTSKNLFSLKMNSVTAADTALYYCARGNPQYDTSGSYTGLYFDFWGQGTLVTVSS
VL: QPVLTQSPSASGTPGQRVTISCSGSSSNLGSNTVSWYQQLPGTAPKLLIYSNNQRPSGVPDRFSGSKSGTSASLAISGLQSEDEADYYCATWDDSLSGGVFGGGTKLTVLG
Kd (BoNT/B4): 1.29 nM
Kd (BoNT/B2): 1.02 nM
Kd (BoNT/B3): 1.61 nM
Kd (BoNT/B1 [6]): 1.11 nM
